From US20190375786A1, “STABLE PEPTIDES AND METHODS OF USE THEREOF” (Fred Hutchinson Cancer Research Center, priority 2016, published 2019)
“Also recorded” adds a separate entry of the source.

Tests used:
[1] = Resistance to reduction by DTT, RP-HPLC; format: physicochemical; conditions: 10 mM DTT; HPLC vs non-reduced peptide
How it was run: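 Peptide (12.5 μg from a 2 mg/ml stock, or 0.015 mM final in PBS) was held 30 min at room temperature with or without 10 mM DTT. Reduced and non-reduced forms were compared by C-18 RP-HPLC using a 5–45% acetonitrile/0.1% TFA gradient over 10 min, with detection at 214 and 280 nm.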

[2] = Stability in simulated gastric fluid (SGF, pH 1.05), RP-HPLC; format: physicochemical; conditions: HPLC vs non-reduced peptide
Experimental: (§1) Peptides were first suspended in 500 ul of ddH2O to a stock concentration of 2 mg/ml. Reactions were prepared by adding 12.5 ug of peptide from the stock solution to a 10 mM solution of DTT in PBS and allowed to incubate at room temperature for 30 minutes. Other reactions were prepared with 12.5 μg peptide with or without 500 U/ml pepsin in simulated gastric fluid (SGF; pH 1.05; […] sodium chloride in 0.7% (v/v) hydrochloric acid) and were incubated for 30 minutes at 37.5° C. Some reactions were quenched with a final concentration of 100 mM Tris base and 10 mM dithiothreitol (DTT). Some reactions were performed in all of the above components, including simulated gastric fluid, pepsin, Tris, and DTT (referred to as SPTD). Reversed phase HPLC (RP-HPLC) was run on samples using an Agilent 1260 HPLC equipped with a C-18 Poroshell 120B column. Sample were analyzed by a gradient method with a mobile phase of Solvent A (water with 0.1% TFA) and Solvent B (acetonitrile with 0.1% TFA). Solvent B was ramped up from 5%-45% of the mobile phase over a period of 10 minutes. Peptides were detected at an absorbance of 214 nm and 280 nm.
This example illustrates peptide stability in biological conditions including in the presence of reducing agents, proteases, oxidative conditions, acidic conditions, and simulated gastric fluids. […] Various peptides were suspended in 500 μl of ddH2O at a stock concentration of 2 mg/ml. This was then diluted in accord with the reaction conditions to prevent adverse buffering effects. Reactions were prepared with 12.5 μg peptide dissolved in solution and, in some samples, additionally suspended in a 10 mM solution of DTT, simulated gastric fluid (pH 1.05; […] sodium chloride in 0.7% (v/v) hydrochloric acid), 500 U pepsin (5000 U/ml pepsin), 50 U trypsin (500 U/ml trypsin) with 1 mg/ml inhibitor in PBS, or a combination of any of these conditions. All protease reactions were incubated for 30 min at room temperature and then quenched. Pepsin reactions were quenched by adding Tris base to a final concentration of 0.075 M. Trypsin reactions were quenched by adding excess soybean trypsin inhibitor. RP-HPLC was then run on samples using an Agilent 1260 HPLC equipped with a C-18 Poroshell 120B column. Sample were analyzed by a gradient method with a mobile phase of Solvent A (water with 0.1% TFA) and Solvent B (acetonitrile with 0.1% TFA). Solvent B was ramped up from 5%-45% of the mobile phase over a period of 10 minutes.

pepsin [3] = target: T1, pepsin (Sus scrofa, UniProt P00791); assay: Stability in SPTD (simulated gastric fluid, pepsin, Tris and DTT), RP-HPLC; format: in vitro ADME; conditions: SGF pH 1.05 with 500 U/ml pepsin, 100 mM Tris, 10 mM DTT
T1 sequence (P00791 60-385): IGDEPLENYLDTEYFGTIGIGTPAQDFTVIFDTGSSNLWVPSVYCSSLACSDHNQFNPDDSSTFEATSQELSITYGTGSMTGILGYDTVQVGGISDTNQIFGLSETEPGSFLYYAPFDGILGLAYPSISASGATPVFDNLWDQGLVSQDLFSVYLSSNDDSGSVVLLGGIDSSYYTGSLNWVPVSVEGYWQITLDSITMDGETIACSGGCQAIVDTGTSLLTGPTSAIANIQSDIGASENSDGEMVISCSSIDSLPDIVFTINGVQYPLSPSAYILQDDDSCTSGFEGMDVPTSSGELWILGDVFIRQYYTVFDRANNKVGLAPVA
Experimental: as §1

trypsin [4] = target: T2, trypsin (Sus scrofa, UniProt P00761); assay: Trypsin digestion resistance of soluble peptide, RP-HPLC; format: in vitro ADME, porcine; set-up: purchased Sigma Aldrich 6567; conditions: 50 U trypsin (500 U/ml), 30 min at room temperature, with or without 10 mM DTT; HPLC
T2 sequence (P00761 9-231): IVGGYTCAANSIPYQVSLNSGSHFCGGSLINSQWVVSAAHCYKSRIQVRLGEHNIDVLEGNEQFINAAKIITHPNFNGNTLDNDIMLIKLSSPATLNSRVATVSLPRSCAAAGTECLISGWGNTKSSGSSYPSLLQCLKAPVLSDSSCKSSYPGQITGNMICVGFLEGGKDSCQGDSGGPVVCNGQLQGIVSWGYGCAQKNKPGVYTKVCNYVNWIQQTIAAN
How it was run: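 12.5 μg soluble peptide digested with 500 U/ml porcine trypsin in PBS, 30 min at 37.5° C; quenched with soybean trypsin inhibitor, with or without 10 mM DTT reduction afterwards. Intact peptide assessed by C-18 RP-HPLC, 5-45% acetonitrile/0.1% TFA gradient over 10 min.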

pepsin [5] = target: T1, pepsin; assay: Pepsin digestion resistance in simulated gastric fluid, RP-HPLC; format: in vitro ADME, porcine; set-up: purchased Sigma Aldrich P7012; conditions: HPLC
How it was run: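 Peptide (12.5 μg) incubated 30 min at 37.5 °C with or without 500 U/ml pepsin in simulated gastric fluid (pH 1.05; 2% NaCl in 0.7% HCl); some reactions quenched with 100 mM Tris and 10 mM DTT. Intact peptide followed by C-18 RP-HPLC (5–45% acetonitrile/0.1% TFA over 10 min) at 214 and 280 nm.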

[6] = Circular dichroism in neutral, SDS and acidic buffers; format: physicochemical
Experimental: CD spectra were measured with a Jasco J-720W spectropolarimeter using a 1.0 mm path length cell. Lyophilized peptide samples were resuspended in ultra pure water. CD runs were carried out by diluting peptides in 20 mM phosphate buffer saline (pH 7.4), 20 mM phosphate buffer saline (pH 7.4) supplemented with 1% sodium dodecyl sulfate (SDS), or phosphate buffer saline at pH 4. Peptides were diluted to 15-25 μM in concentration. Data are shown in terms of total molar ellipticity [θ]; (deg cm^2 dmol^−1).

[7] = Combined resistance grouping of hitchin peptides (FIG. 27, from Table 2 data); format: physicochemical; conditions: FIG. 27 grouping of hitchin peptides
Experimental: As shown by the data in TABLE 2, the tested peptides of the present disclosure show a range of resistance to proteases, reduction, and high temperature. The peptides were classified as high, medium, or low for each condition. […] For example, after a peptide is treated at 100° C., if the HPLC peak of the peptide is mostly absent as compared to HPLC peak of the peptide not treated at 100° C., then the peptide is classified as low or having low resistance to 100° C. After a peptide is treated with reducing conditions, if there is no or very minimal HPLC peak that overlaps with the HPLC peak of the peptide not treated with reducing conditions, then the peptide is classified as low or having low resistance to reducing conditions.
The peptides with the highest resistance data were further analyzed. […] The six peptides that were further tested were peptides comprising the sequences of SEQ ID NO: 27, SEQ ID NO: 24, SEQ ID NO: 6, SEQ ID NO: 10, SEQ ID NO: 12, and SEQ ID NO: 57, which were all hitchins. […] FIG. 27C is a sequence analysis of SEQ ID NO: 27, SEQ ID NO: 24, SEQ ID NO: 6, SEQ ID NO: 10, SEQ ID NO: 12, and SEQ ID NO: 57 from FIG. 27B. FIG. 27C identifies which amino acids are present at each position in SEQ ID NO: 27, SEQ ID NO: 24, SEQ ID NO: 6, SEQ ID NO: 10, SEQ ID NO: 12, and SEQ ID NO: 57. For example, at position one, all peptide sequences comprise a G amino acid residue; at position two, all peptide sequences comprise an S amino acid residue; at position three, all peptide sequences comprise either G, Q, or V amino acid, or null; and at position four, all peptide sequences comprise V, R, or K amino acid, or null. […] SEQ ID NO: 167 and SEQ ID NO: 168 describe sequences of peptides that are particularly resistant to reduction, pepsin, 75° C., and 100° C., which would typically degrade peptides. […] Additionally, SEQ ID NO: 169 describes sequences of peptides that are also particularly resistant to trypsin.

[8] = Resistance to reduction by reduced glutathione (GSH), HPLC; format: physicochemical; conditions: 10 mM reduced glutathione (GSH); HPLC vs non-reduced peptide
Experimental: This example describes stability of designed or engineered peptides under reducing conditions. Peptides that are designed or engineered to interact with one or more target proteins in the cell, such as proteins in the nucleus, are exposed to reducing conditions in the cytosolic compartment of cells. Thus, it is advantageous for peptides of this disclosure to display stability in reducing conditions. Stability of peptides of this disclosure was tested in 10 mM DTT and 10 mM GSH. GSH is a more physiologically relevant reducing agent for testing peptide stability in intracellular conditions. An example of a peptide-target protein interaction is a peptide binding to a TEAD protein.

trypsin [9] = target: T2, trypsin; assay: SDPR surface display protease resistance, anti-6xHis staining, trypsin; format: cell-based; conditions: HEK-293 cells, up to 40 μg/ml trypsin for 20 minutes
Experimental: (§2) Soluble peptides were exposed to 500 U/mL porcine trypsin and analyzed by HPLC. Protease resistance was also assessed by using SDPR-displaying peptides. The SDPR vector is similar to the a surface display GFP FasL(SDGF) vector, but contains a C-terminal 6×His tag (SEQ ID NO: 180) and all basic or aromatic amino acid residues on the stalk removed. Protease resistance is then tested by incubation of cells displaying peptides with trypsin or chymotrypsin, followed by incubation in 10 mM DTT, and staining with an anti-6×His fluorophore-labeled antibody (“6×His” disclosed as SEQ ID NO: 180). If peptides are uncleaved, they retain the His tag and are stained with by the antibody. A control protease-sensitive knottin peptide (SK) was used as a positive control. Cells displaying peptides were treated with up to 40 μg/ml trypsin or chymotrypsin.
(§3) To determine the impact of protease treatment or reducing condition on the function of the peptides, i.e., binding activity, various binding or functional assays can be performed. […] After treatment with the protease and reducing agent, any linearized peptide product or degradation product resulting from reduction and/or proteolysis by treatment with a protease can be detected or analyzed by staining against the 6×His tag (SEQ ID NO: 180). […]

chymotrypsin = assay: SDPR surface display protease resistance, anti-6xHis staining, chymotrypsin; format: cell-based; conditions: HEK-293 cells, up to 40 μg/ml chymotrypsin for 20 minutes
Experimental: as §2, §3

## GSGVPINVRCRGSRDCLDPCRRAGMRFGRCINSRCHCTP [SEQ ID NO: 31]
[1]
  resistance to reduction by DTT (in words): highly resistant; also recorded: remained intact; also recorded: intact and resistant
[2]
  stability in simulated gastric fluid / low pH (in words): highly resistant; also recorded: remained intact; also recorded: intact and resistant
Pepsin [3]
  resistance in SPTD (SGF, pepsin, Tris, DTT) (in words): highly resistant
Trypsin [4]
  resistance to trypsin, Example 7 conditions (in words): remained intact; also recorded: resistant
Pepsin [5]; 500 U pepsin (5000 U/ml) in SGF, 30 min at room temperature, with or without DTT
  resistance to pepsin, Example 7 conditions (in words): remained intact; also recorded: resistant
Pepsin [5]; 500 U/ml pepsin (50 U per reaction) in SGF, 30 minutes at 37.5° C.
  resistance to pepsin digestion (in words): highly resistant

## GSVFINVKCRGSPECLPKCKEAIGKSAGKCMNGKCKCYP [SEQ ID NO: 37]
[6]; pH 4
  secondary structure by CD in phosphate buffer saline at pH 4: retained its secondary structure
[6]; pH 7.2
  secondary structure by CD in phosphate buffer saline at pH 7.2: retained its secondary structure
[6]; pH 7.2, 1% sodium dodecyl sulfate
  secondary structure by CD in phosphate buffer saline at pH 7.2 with 1% SDS: lost secondary structure
[7]
  combined resistance to reduction, pepsin and elevated temperatures such as 75° C. and 100° C.: not highly resistant

## PDEYIERAKECCKKQDIQCCLRIFDESKDPNVMLICLFCW [SEQ ID NO: 126]
[8]
  resistance to GSH reducing conditions: resistant
Trypsin [9]
  resistance of surface-displayed peptide to cleavage by trypsin: partially resistant
chymotrypsin
  resistance of surface-displayed peptide to cleavage by chymotrypsin: partially resistant
